{"source": "a protein production outcome set (Wang et al. 2014)", "data": [{"assay": "label from the status in PepcDB records", "values": [{"sequence": "LNIAQKGREGRKIGTAFVMGDVEEVMSRSSQLVINPYHGHKEADRDIKNPENWESVMEFAQIDGVFVLDENGIIIACGRYIEASAKDLVSKIKRGLGGRHIACASITKETKAIAVVVSESGGDITVYKDGVEVMHIPSLLF", "protein production": "failed"}, {"sequence": "LNLPYDEHADAWTQVKKALAAGKRTHKPTLLVFGANWCTDCRALDKSLRNQKNTALIAKHFEVVKIDVGNFDRNLELSQAYGDPIQDGIPAVVVVNSDGKVRYTTKGGELANARKMSDQGIYDFFAKITE", "protein production": "not failed"}, {"sequence": "LNSAPTPRDVVANAPAPVQAAVAGAQEYAAQAGLNTEELAVDALYNAIKVRLAGTGLGIPPQIEAFYQANRTNFNGFYMANRGAIDFIFSM", "protein production": "not failed"}, {"sequence": "LPLCDSLIIWLQTFKTASPCQDVKQLTNGVTMAQVLHQIDVAWFSESWLSRIKDDVGDNWRIKASNLKKVLHGITSYYHEFLGQQISEELIPDLNQITECADPVELGRLLQLILGCAVNCEKKQEHIKNIMTLEESVQHVVMTAIQELMSK", "protein production": "not failed"}, {"sequence": "LPSDVTEGKTVFIRNLSFDSEEEALGEVLQQFGDLKYVRVVLHPDTEHSKGCAFAQFMTQEAAQKCLAAASLEAEGGGLKLDGRQLKVDLAVTRDEAA", "protein production": "not failed"}, {"sequence": "LQPNMRTRVCTVINNNIAHEWTLARIASELLMSPSLLKKKLREEETSYSQLLTECRMQRALQLIVIHGFSIKRVAVSCGYHSVSYFIYVFRNYYGMTPTEYQERSAQRLSNRDSAAS", "protein production": "not failed"}, {"sequence": "LRLSCFIDQPTGLFNRSRLQEDIHEALASSVDYQLVVVDMITSAFLNDIVKALGYDFSQDLVTAIKERIESLLPRTCSLYKVGPTRFGFLLPGDRPPEHLFRTILEDFETPVECRGIPVQMQVGLGVVTLNRDPNEEQDWMRMVISAADDARDRDLGWA", "protein production": "failed"}, {"sequence": "LSENTTPFGSVSQHDTQVNCQLQLNAANHLIVNEQTRNCFEYFLTQYGEKSLTQIDQDIKNYFTQSLPQPARDQAQDLWQRYLKYREELGNLKEPAIAKTDIAYYRAVFTSRQMLRQRFFSATEIAGLFGSEDIYNQYTLERMAILNNSKLSEIEKAKQLKALFDQLPQDWKANLEQLSKLDDLKQLTTSIKKNGGSAQELHDMRTNLVGHDATARLEQLDVERSNWKSNVTQYLDERQTILNSNMSDTAKQNAISALRSKNFTAPQDQIRVQAFESAKDQ", "protein production": "failed"}, {"sequence": "LTEAVSLMEANIEEPLSTDDIAYYVGVSRRQLERLFKQYLGTVPSKYYLELRLNRARQLLQQTSKSIVQIGLACGFSSGPHFSSTYRNHFNITPREERAQ", "protein production": "not failed"}, {"sequence": "LTTEGGKALVDFAVKRNLQYIHFDAGWYGFEYDKVSDATTVTLDPRRNPDINALNLKEVVAYAKERGIGVILYVNQRALQQQLDEILPLYKSWGIAGIKFGFVQVGSQVWTKWMHEAIKKCADYGLMVDVHDEYRPTGFSRTYPNLM", "protein production": "failed"}, {"sequence": "LVPLESDLSRAADLLNAGRKVAILAGRGALEAKEALRETAELLGAPVAKALLGKAVLPDDDPLTTGGIGILGTAPSQEIMQQCDTLLIIGSTFPYIEYYPRPNTAAGIQIDHDPQRIGLRYPVEVGLVGEAGETLRMLNKRLKRKQDRSFLERAQEQTRNWRRELRAMEGDRS", "protein production": "failed"}, {"sequence": "MAAAAAGPASSQRLFQSFSDALIDGDPQAALEELTKALEQNPDDAQYYCQRAYCHILLGKYRDGIADVKKSLELNPNNCTALLRKGICEYHEKDYASALETFAEGQKLDSTDTNFDTWIKRCQEIQNGSESEVSASQRTQSKIKYDWYQTESHVIITLMIKSVQKNDVRVGFSERELSALVKIPAGEDYSLKLRLLHPIIPEQSTFKVLSTKIEIKMKKPEAVRWEKLEGQGDEPTPKQFTADVKNMYPSSSHYTRNWDKLVGEIKEEEKNEKLEGDAALNKLFQQIYSDGSDEVKRAMNKSFMESGGTVLSTNWSDVGKRKVEINPPDDMEWKQY", "protein production": "failed"}, {"sequence": "MAAAALREQLNALLSSMFASGLVDEQFQQLQMLQEDGGTPGFVAEVVTLFCDDADRIISELAALLDQPIVDFDKVDAYVHQLKGSSASVGAQKVKFTCMQFRQLCQDKNRDGCIMALAVVRNEFYDLRNKFQTMLQLEQQIQAQQ", "protein production": "not failed"}, {"sequence": "MAAAVPQRAWTVEQLRSEQLPKKDIIKFLQEHGSDSFLAEHKLLGNIKNVAKTANKDHLVTAYNHLFETK", "protein production": "not failed"}, {"sequence": "MAADGIFRSIFEGCISGLDSAIERRPYHKNCGCALHDKSSGAGKNQNQRRPPSCRRHGSSESISFPIRRSWSEGNIMAMNLFSSSSSSSNLQSLSSSSSLSNLASDLPVDNAATEEPSRSNKQLRWTIDEGEDD", "protein production": "failed"}]}]}
